Measurements published in patent US20220306695A1, “COMPSTATIN ANALOGUES AND THEIR MEDICAL USES” (priority 2019, published 2022).
Starred links: 1 amine or outer side, 2 acyl side, 3 side chain; linkers in the order of their positions; H or OH if unused. Positions of bridges follow the written chain, without caps; N, C: chain ends. Non-standard residues stand in square brackets, D forms with d. Groups on a side chain read outwards from the residue. *: point of attachment. Trp(1-Me) = Cn1cc(C[C@H](N)C(=O)O)c2ccccc21; C18 diacid = O=C(O)CCCCCCCCCCCCCCCCC(=O)*; C16 diacid = O=C(O)CCCCCCCCCCCCCCC(=O)*; γGlu = O=C(O)[C@H](CCC(=O)[*:2])N[*:1]; hCys = N[C@@H](CCS)C(=O)O; AEEA = NCCOCCOCC(=O)O; Sar = CNCC(=O)O

B1: Compound 44 (peptide)
peptide: Ac-EGSAICIWQDWGEHRC[Sar]EGE-NH2
modifications: disulfide 6-16
SMILES: CC[C@H](C)[C@H](NC(=O)[C@H](C)NC(=O)[C@H](CO)NC(=O)CNC(=O)[C@H](CCC(=O)O)NC(C)=O)C(=O)N[C@H]1CSSC[C@@H](C(=O)N(C)CC(=O)N[C@@H](CCC(=O)O)C(=O)NCC(=O)N[C@@H](CCC(=O)O)C(N)=O)NC(=O)[C@H](CCCNC(=N)N)NC(=O)[C@H](Cc2c[nH]cn2)NC(=O)[C@H](CCC(=O)O)NC(=O)CNC(=O)[C@H](Cc2c[nH]c3ccccc23)NC(=O)[C@H](CC(=O)O)NC(=O)[C@H](CCC(N)=O)NC(=O)[C@H](Cc2c[nH]c3ccccc23)NC(=O)[C@H]([C@@H](C)CC)NC1=O
B2: Compound 11 (peptide)
peptide: Ac-[Sar]CIWQDWGEHRCT-NH2
modifications: disulfide 2-12
SMILES: CC[C@H](C)[C@@H]1NC(=O)[C@@H](NC(=O)CN(C)C(C)=O)CSSC[C@@H](C(=O)N[C@H](C(N)=O)[C@@H](C)O)NC(=O)[C@H](CCCNC(=N)N)NC(=O)[C@H](Cc2c[nH]cn2)NC(=O)[C@H](CCC(=O)O)NC(=O)CNC(=O)[C@H](Cc2c[nH]c3ccccc23)NC(=O)[C@H](CC(=O)O)NC(=O)[C@H](CCC(N)=O)NC(=O)[C@H](Cc2c[nH]c3ccccc23)NC1=O
B3: Compound 40 (peptide)
peptide: Ac-GSAICIWQDWGEHRC[Sar]E-NH2
modifications: disulfide 5-15
SMILES: CC[C@H](C)[C@H](NC(=O)[C@H](C)NC(=O)[C@H](CO)NC(=O)CNC(C)=O)C(=O)N[C@H]1CSSC[C@@H](C(=O)N(C)CC(=O)N[C@@H](CCC(=O)O)C(N)=O)NC(=O)[C@H](CCCNC(=N)N)NC(=O)[C@H](Cc2c[nH]cn2)NC(=O)[C@H](CCC(=O)O)NC(=O)CNC(=O)[C@H](Cc2c[nH]c3ccccc23)NC(=O)[C@H](CC(=O)O)NC(=O)[C@H](CCC(N)=O)NC(=O)[C@H](Cc2c[nH]c3ccccc23)NC(=O)[C@H]([C@@H](C)CC)NC1=O
B4: Compound 159 (peptide)
peptide: EGSAYAIWQDWGEHRCGEKEK
modifications: not fully specified; N-acetyl; C-terminal amide; delta-cystathionine (Ctt2) thioether bridge A6-hCys16 (hCys written C); W8 is 1-Me-Trp; G17 is Sar; E20 is γGlu; K21 side chain bears [17-carboxy-heptadecanoyl][γGlu][Peg3][Peg3]
B5: Compound 145 (peptide)
peptide: Ac-EFCI[Trp(1-Me)]QDWGEHRC[Sar]EA[AEEA][AEEA]K([γGlu-Gly-γGlu-C18 diacid])-NH2
modifications: disulfide 3-13
SMILES: CC[C@H](C)[C@@H]1NC(=O)[C@@H](NC(=O)[C@H](Cc2ccccc2)NC(=O)[C@H](CCC(=O)O)NC(C)=O)CSSC[C@@H](C(=O)N(C)CC(=O)N[C@@H](CCC(=O)O)C(=O)N[C@@H](C)C(=O)NCCOCCOCC(=O)NCCOCCOCC(=O)N[C@@H](CCCCNC(=O)CC[C@H](NC(=O)CNC(=O)CC[C@H](NC(=O)CCCCCCCCCCCCCCCCC(=O)O)C(=O)O)C(=O)O)C(N)=O)NC(=O)[C@H](CCCNC(=N)N)NC(=O)[C@H](Cc2c[nH]cn2)NC(=O)[C@H](CCC(=O)O)NC(=O)CNC(=O)[C@H](Cc2c[nH]c3ccccc23)NC(=O)[C@H](CC(=O)O)NC(=O)[C@H](CCC(N)=O)NC(=O)[C@H](Cc2cn(C)c3ccccc23)NC1=O
B6: Ac-IC(1)X…(1)T-NH2 with Leucine at position 3 (peptide)
peptide: Ac-ICLWQDWGEHRCT-NH2
modifications: disulfide 2-12
SMILES: CC[C@H](C)[C@H](NC(C)=O)C(=O)N[C@H]1CSSC[C@@H](C(=O)N[C@H](C(N)=O)[C@@H](C)O)NC(=O)[C@H](CCCNC(=N)N)NC(=O)[C@H](Cc2c[nH]cn2)NC(=O)[C@H](CCC(=O)O)NC(=O)CNC(=O)[C@H](Cc2c[nH]c3ccccc23)NC(=O)[C@H](CC(=O)O)NC(=O)[C@H](CCC(N)=O)NC(=O)[C@H](Cc2c[nH]c3ccccc23)NC(=O)[C@H](CC(C)C)NC1=O
B7: Compound 156 (peptide)
peptide: Ac-SEFAI[Trp(1-Me)]QDWGEHR[hCys]TEGE[AEEA][AEEA]K([γGlu-Gly-γGlu-C18 diacid])-NH2
modifications: thioether 4-14
SMILES: CC[C@H](C)[C@@H]1NC(=O)[C@@H](NC(=O)[C@H](Cc2ccccc2)NC(=O)[C@H](CCC(=O)O)NC(=O)[C@H](CO)NC(C)=O)CSCC[C@@H](C(=O)N[C@H](C(=O)N[C@@H](CCC(=O)O)C(=O)NCC(=O)N[C@@H](CCC(=O)O)C(=O)NCCOCCOCC(=O)NCCOCCOCC(=O)N[C@@H](CCCCNC(=O)CC[C@H](NC(=O)CNC(=O)CC[C@H](NC(=O)CCCCCCCCCCCCCCCCC(=O)O)C(=O)O)C(=O)O)C(N)=O)[C@@H](C)O)NC(=O)[C@H](CCCNC(=N)N)NC(=O)[C@H](Cc2c[nH]cn2)NC(=O)[C@H](CCC(=O)O)NC(=O)CNC(=O)[C@H](Cc2c[nH]c3ccccc23)NC(=O)[C@H](CC(=O)O)NC(=O)[C@H](CCC(N)=O)NC(=O)[C@H](Cc2cn(C)c3ccccc23)NC1=O
B8: Compound 155 (peptide)
peptide: Ac-GEFAI[Trp(1-Me)]QEWGEHR[hCys][Sar]EGE[AEEA]ESK([γGlu-Gly-γGlu-C18 diacid])-NH2
modifications: thioether 4-14
SMILES: CC[C@H](C)[C@@H]1NC(=O)[C@@H](NC(=O)[C@H](Cc2ccccc2)NC(=O)[C@H](CCC(=O)O)NC(=O)CNC(C)=O)CSCC[C@@H](C(=O)N(C)CC(=O)N[C@@H](CCC(=O)O)C(=O)NCC(=O)N[C@@H](CCC(=O)O)C(=O)NCCOCCOCC(=O)N[C@@H](CCC(=O)O)C(=O)N[C@@H](CO)C(=O)N[C@@H](CCCCNC(=O)CC[C@H](NC(=O)CNC(=O)CC[C@H](NC(=O)CCCCCCCCCCCCCCCCC(=O)O)C(=O)O)C(=O)O)C(N)=O)NC(=O)[C@H](CCCNC(=N)N)NC(=O)[C@H](Cc2c[nH]cn2)NC(=O)[C@H](CCC(=O)O)NC(=O)CNC(=O)[C@H](Cc2c[nH]c3ccccc23)NC(=O)[C@H](CCC(=O)O)NC(=O)[C@H](CCC(N)=O)NC(=O)[C@H](Cc2cn(C)c3ccccc23)NC1=O
B9: Compound 41 (peptide)
peptide: Ac-SAICIWQDWGEHRC[Sar]E-NH2
modifications: disulfide 4-14
SMILES: CC[C@H](C)[C@H](NC(=O)[C@H](C)NC(=O)[C@H](CO)NC(C)=O)C(=O)N[C@H]1CSSC[C@@H](C(=O)N(C)CC(=O)N[C@@H](CCC(=O)O)C(N)=O)NC(=O)[C@H](CCCNC(=N)N)NC(=O)[C@H](Cc2c[nH]cn2)NC(=O)[C@H](CCC(=O)O)NC(=O)CNC(=O)[C@H](Cc2c[nH]c3ccccc23)NC(=O)[C@H](CC(=O)O)NC(=O)[C@H](CCC(N)=O)NC(=O)[C@H](Cc2c[nH]c3ccccc23)NC(=O)[C@H]([C@@H](C)CC)NC1=O
B10: Compound 143 (peptide)
peptide: Ac-SEFCI[Trp(1-Me)]QDWGEHRC[Sar]EGE[AEEA][AEEA][AEEA]K([γGlu-Gly-γGlu-C18 diacid])-NH2
modifications: disulfide 4-14
SMILES: CC[C@H](C)[C@@H]1NC(=O)[C@@H](NC(=O)[C@H](Cc2ccccc2)NC(=O)[C@H](CCC(=O)O)NC(=O)[C@H](CO)NC(C)=O)CSSC[C@@H](C(=O)N(C)CC(=O)N[C@@H](CCC(=O)O)C(=O)NCC(=O)N[C@@H](CCC(=O)O)C(=O)NCCOCCOCC(=O)NCCOCCOCC(=O)NCCOCCOCC(=O)N[C@@H](CCCCNC(=O)CC[C@H](NC(=O)CNC(=O)CC[C@H](NC(=O)CCCCCCCCCCCCCCCCC(=O)O)C(=O)O)C(=O)O)C(N)=O)NC(=O)[C@H](CCCNC(=N)N)NC(=O)[C@H](Cc2c[nH]cn2)NC(=O)[C@H](CCC(=O)O)NC(=O)CNC(=O)[C@H](Cc2c[nH]c3ccccc23)NC(=O)[C@H](CC(=O)O)NC(=O)[C@H](CCC(N)=O)NC(=O)[C@H](Cc2cn(C)c3ccccc23)NC1=O
B11: Ac-IC(1)X…(1)T-NH2 with Phenylalanine at position 3 (peptide)
peptide: Ac-ICFWQDWGEHRCT-NH2
modifications: disulfide 2-12
SMILES: CC[C@H](C)[C@H](NC(C)=O)C(=O)N[C@H]1CSSC[C@@H](C(=O)N[C@H](C(N)=O)[C@@H](C)O)NC(=O)[C@H](CCCNC(=N)N)NC(=O)[C@H](Cc2c[nH]cn2)NC(=O)[C@H](CCC(=O)O)NC(=O)CNC(=O)[C@H](Cc2c[nH]c3ccccc23)NC(=O)[C@H](CC(=O)O)NC(=O)[C@H](CCC(N)=O)NC(=O)[C@H](Cc2c[nH]c3ccccc23)NC(=O)[C@H](Cc2ccccc2)NC1=O
B12: Compound 158 (peptide)
peptide: Ac-EFAI[Trp(1-Me)]QEWGEHR[hCys][Sar]EA[AEEA][AEEA]K([γGlu-Gly-γGlu-C18 diacid])-NH2
modifications: thioether 3-13
SMILES: CC[C@H](C)[C@@H]1NC(=O)[C@@H](NC(=O)[C@H](Cc2ccccc2)NC(=O)[C@H](CCC(=O)O)NC(C)=O)CSCC[C@@H](C(=O)N(C)CC(=O)N[C@@H](CCC(=O)O)C(=O)N[C@@H](C)C(=O)NCCOCCOCC(=O)NCCOCCOCC(=O)N[C@@H](CCCCNC(=O)CC[C@H](NC(=O)CNC(=O)CC[C@H](NC(=O)CCCCCCCCCCCCCCCCC(=O)O)C(=O)O)C(=O)O)C(N)=O)NC(=O)[C@H](CCCNC(=N)N)NC(=O)[C@H](Cc2c[nH]cn2)NC(=O)[C@H](CCC(=O)O)NC(=O)CNC(=O)[C@H](Cc2c[nH]c3ccccc23)NC(=O)[C@H](CCC(=O)O)NC(=O)[C@H](CCC(N)=O)NC(=O)[C@H](Cc2cn(C)c3ccccc23)NC1=O

The binders below were run against Human C3 (human, UniProt P01024 23-1663) (assay: cell-based or functional assay).
Human C3, sequence (P01024 23-1663 limits assumed): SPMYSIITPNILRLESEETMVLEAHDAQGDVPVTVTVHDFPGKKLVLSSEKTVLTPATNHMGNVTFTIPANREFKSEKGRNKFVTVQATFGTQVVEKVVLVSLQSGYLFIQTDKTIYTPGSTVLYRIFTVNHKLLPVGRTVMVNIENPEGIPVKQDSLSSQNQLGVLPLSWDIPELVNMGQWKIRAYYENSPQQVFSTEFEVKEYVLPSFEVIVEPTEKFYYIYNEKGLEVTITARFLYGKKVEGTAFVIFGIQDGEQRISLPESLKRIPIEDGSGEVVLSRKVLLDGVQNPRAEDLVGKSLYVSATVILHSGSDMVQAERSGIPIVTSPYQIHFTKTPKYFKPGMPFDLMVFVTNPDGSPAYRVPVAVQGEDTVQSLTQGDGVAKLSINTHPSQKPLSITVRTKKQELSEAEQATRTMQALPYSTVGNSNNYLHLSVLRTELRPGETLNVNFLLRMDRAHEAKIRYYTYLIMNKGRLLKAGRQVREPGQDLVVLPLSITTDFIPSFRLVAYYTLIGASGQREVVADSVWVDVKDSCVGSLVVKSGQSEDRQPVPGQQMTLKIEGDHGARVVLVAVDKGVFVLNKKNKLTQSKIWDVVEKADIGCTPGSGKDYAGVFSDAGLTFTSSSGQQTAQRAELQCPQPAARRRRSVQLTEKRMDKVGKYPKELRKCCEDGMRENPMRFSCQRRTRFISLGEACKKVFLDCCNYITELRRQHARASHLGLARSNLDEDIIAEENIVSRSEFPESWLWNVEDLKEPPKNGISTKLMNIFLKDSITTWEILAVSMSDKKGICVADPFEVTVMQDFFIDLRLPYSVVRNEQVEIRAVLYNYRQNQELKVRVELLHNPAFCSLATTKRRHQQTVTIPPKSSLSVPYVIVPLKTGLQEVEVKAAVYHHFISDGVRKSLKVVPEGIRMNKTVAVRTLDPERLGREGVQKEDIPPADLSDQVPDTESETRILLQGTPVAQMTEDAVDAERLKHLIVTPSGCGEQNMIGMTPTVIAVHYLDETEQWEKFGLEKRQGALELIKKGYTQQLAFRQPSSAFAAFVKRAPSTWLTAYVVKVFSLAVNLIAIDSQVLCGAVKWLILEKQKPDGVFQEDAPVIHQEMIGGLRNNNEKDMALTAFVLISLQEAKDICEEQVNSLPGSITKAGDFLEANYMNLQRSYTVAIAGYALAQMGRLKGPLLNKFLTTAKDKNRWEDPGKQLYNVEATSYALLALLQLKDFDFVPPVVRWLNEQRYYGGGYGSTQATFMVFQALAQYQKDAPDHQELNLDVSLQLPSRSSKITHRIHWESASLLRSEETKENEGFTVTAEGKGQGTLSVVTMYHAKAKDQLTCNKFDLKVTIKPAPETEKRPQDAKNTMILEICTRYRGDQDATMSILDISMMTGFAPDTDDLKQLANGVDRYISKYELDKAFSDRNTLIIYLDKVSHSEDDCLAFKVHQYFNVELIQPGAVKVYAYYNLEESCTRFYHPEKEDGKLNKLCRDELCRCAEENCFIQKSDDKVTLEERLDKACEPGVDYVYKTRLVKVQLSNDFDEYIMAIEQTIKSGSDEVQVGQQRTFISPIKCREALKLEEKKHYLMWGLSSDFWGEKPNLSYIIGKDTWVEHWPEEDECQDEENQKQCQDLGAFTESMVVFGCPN

B1 and B2 cannot be ordered by IC50[nM], inhibition of hemolysis: less than 250 nM for the first, less than 100 nM for the second.

B3 and B4 cannot be ordered by IC50[nM], inhibition of hemolysis: less than 250 nM for the first, less than 100 nM for the second.

B5 and Ac-SEFAI[Trp(1-Me)]QDWGEHR[hCys]TEGE[AEEA]ESK([γGlu-C18 diacid])-OH (thioether 4-14) [Compound 163] cannot be ordered by IC50[nM], inhibition of hemolysis: less than 100 nM for the first, less than 100 nM for the second.

Ac-SEFAI[Trp(1-Me)]QDW[Sar]EHR[hCys][Sar]E[AEEA][AEEA]K([γGlu-Gly-γGlu-C18 diacid])-OH (thioether 4-14) [Compound 162] and B7 cannot be ordered by IC50[nM], inhibition of hemolysis: less than 100 nM for the first, less than 100 nM for the second.

B8 and B9 cannot be ordered by IC50[nM], inhibition of hemolysis: less than 100 nM for the first, less than 250 nM for the second.

B10 and Ac-SEFAI[Trp(1-Me)]QDWGEHR[hCys][Sar]EGE[AEEA][AEEA]K([γGlu-Gly-γGlu-C16 diacid])-NH2 (thioether 4-14) [Compound 160] cannot be ordered by IC50[nM], inhibition of hemolysis: less than 100 nM for the first, less than 100 nM for the second.

B12 showed an IC50[nM], inhibition of hemolysis of less than 250 nM.

Point of comparison: B6, IC50, CP hemolysis 500 nM. Against it:
- B11 — higher, > 10000 nM
